Reference: the supplement of paper PMC11246515
± gives the standard deviation of the averaged measurements.

Assay: total protein half-life in vivo (active degradation + dilution); higher = more stable protein
[1] = E. coli NCM3722 delta-clpP delta-lon delta-hslV, growth: N-lim chemostat, doubling time 6 h
[2] = E. coli NCM3722 delta-clpP, growth: N-lim chemostat, doubling time 6 h
[3] = E. coli NCM3722 delta-hslV, growth: N-lim chemostat, doubling time 6 h
[4] = E. coli NCM3722 delta-smpB, growth: N-lim chemostat, doubling time 6 h
[5] = wild type E. coli NCM3722, growth: C-lim chemostat, doubling time 3 h
[6] = wild type E. coli NCM3722, growth: C-lim chemostat, doubling time 12 h
[7] = wild type E. coli NCM3722, growth: N-lim chemostat, doubling time 6 h
[8] = wild type E. coli NCM3722, growth: N-lim chemostat, doubling time 12 h
[9] = wild type E. coli NCM3722, growth: P-lim chemostat, doubling time 6 h
[10] = wild type E. coli NCM3722, growth: P-lim chemostat, doubling time 12 h
[11] = wild type E. coli NCM3722, growth: C-lim chemostat, doubling time 6 h
[12] = E. coli NCM3722 delta-lon, growth: N-lim chemostat, doubling time 6 h

MATLFIADLHLCVEEPAITAGFLRFLAGEARKADALYILGDLFEAWIGDDDPNPLHRKMAAAIKAVSDSGVPCYFIHGNRDFLLGKRFARESGMTLLPEEKVLELYGRRVLIMHGDTLCTDDAGYQAFRAKVHKPWLQTLFLALPLFVRKRIAARMRANSKEANSSKSLAIMDVNQNAVVSAMEKHQVQWLIHGHTHRPAVHELIANQQPAFRVVLGAWHTEGSMVKVTADDVELIHFPF
total protein half-life in vivo [1]: 5.85 ± 1.3 h | total protein half-life in vivo [2]: 5.94 ± 0.2 h | total protein half-life in vivo [3]: 6.87 ± 0.8 h | total protein half-life in vivo [4]: 5.781 ± 0.025 h | total protein half-life in vivo [5]: 3.14 ± 0.045 h | total protein half-life in vivo [6]: 13.1 ± 0.46 h | total protein half-life in vivo [7]: 6.36 ± 0.95 h | total protein half-life in vivo [8]: 12.4 ± 0.57 h | total protein half-life in vivo [9]: 6.49 ± 0.51 h | total protein half-life in vivo [10]: 12 ± 0.37 h

MIKTTPHKIVILMGILLSPSVFATDINVEFTATVKATTCNITLTGNNVTNDGNNNYTLRIPKMGLDKIANKTTESQADFKLVASGCSSGISWIDTTLTGNASSSSPKLIIPQSGDSSSTTSNIGMGFKKRTTDDATFLKPNSAEKIRWSTDEMQPDKGLEMTVALRETDAGQGVPGNFRALATFNFIYQ
total protein half-life in vivo [6]: 10.5 h

MALLNIFDIAGSALTAQSQRLNVAASNLANADSVTGPDGQPYRAKQVVFQVNAAPGAATGGVKVADVIESQAPDKLVYEPGNPLADAKGYVKMPNVDVVGEMVNTMSASRSYQANVEVLNTVKSMMLKTLTLGQ [P0ABX2]
total protein half-life in vivo [2]: > 8 h | total protein half-life in vivo [4]: > 8 h | total protein half-life in vivo [5]: 0.544 ± 0.33 h | total protein half-life in vivo [11]: 0.417 h | total protein half-life in vivo [6]: 1.79 ± 0.53 h | total protein half-life in vivo [7]: 3.6 h

MTTQVPPSALLPLNPEQLARLQAATTDLTPTQLAWVSGYFWGVLNQQPAALAATPAPAAEMPGITIISASQTGNARRVAEALRDDLLAAKLNVKLVNAGDYKFKQIASEKLLIVVTSTQGEGEPPEEAVALHKFLFSKKAPKLENTAFAVFSLGDSSYEFFCQSGKDFDSKLAELGGERLLDRVDADVEYQAAASEWRARVVDALKSRAPVAAPSQSVATGAVNEIHTSPYSKDAPLVASLSVNQKITGRNSEKDVRHIEIDLGDSGMRYQPGDALGVWYQNDPALVKELVELLWLKGDEPVTVEGKTLPLNEALQWHFELTVNTANIVENYATLTRSETLLPLVGDKAKLQHYAATTPIVDMVRFSPAQLDAEALINLLRPLTPRLYSIASSQAEVENEVHVTVGVVRYDVEGRARAGGASSFLADRVEEEGEVRVFIEHNDNFRLPANPETPVIMIGPGTGIAPFRAFMQQRAADEAPGKNWLFFGNPHFTEDFLYQVEWQRYVKDGVLTRIDLAWSRDQKEKVYVQDKLREQGAELWRWINDGAHIYVCGDANRMAKDVEQALLEVIAEFGGMDTEAADEFLSELRVERRYQRDVY
total protein half-life in vivo [1]: 5.2 ± 0.35 h | total protein half-life in vivo [2]: 3.456 ± 0.027 h | total protein half-life in vivo [3]: 3.67 ± 0.1 h | total protein half-life in vivo [12]: 4.31 ± 0.044 h | total protein half-life in vivo [4]: 3.24 ± 0.067 h | total protein half-life in vivo [5]: 2.808 ± 0.02 h | total protein half-life in vivo [11]: 4.99 ± 0.42 h | total protein half-life in vivo [6]: 8.53 ± 0.79 h | total protein half-life in vivo [7]: 3.58 ± 0.06 h | total protein half-life in vivo [8]: 5.215 ± 0.029 h | total protein half-life in vivo [9]: 4.99 ± 0.36 h | total protein half-life in vivo [10]: 8.98 ± 1 h

MLKKCLPLLLLCTAPVFAKPVLTVYTYDSFAADWGPGPVVKKAFEADCNCELKLVALEDGVSLLNRLRMEGKNSKADVVLGLDNNLLDAASKTGLFAKSGVAADAVNVPGGWNNDTFVPFDYGYFAFVYDKNKLKNPPQSLKELVESDQNWRVIYQDPRTSTPGLGLLLWMQKVYGDDAPQAWQKLAKKTVTVTKGWSEAYGLFLKGESDLVLSYTTSPAYHILEEKKDNYAAANFSEGHYLQVEVAARTAASKQPELAQKFLQFMVSPAFQNAIPTGNWMYPVANVTLPAGFEKLTKPATTLEFTPAEVAAQRQAWISEWQRAVSR
total protein half-life in vivo [1]: 4.4 ± 0.16 h | total protein half-life in vivo [2]: 5.26 ± 0.44 h | total protein half-life in vivo [3]: 6.48 ± 0.38 h | total protein half-life in vivo [12]: 5.82 ± 0.072 h | total protein half-life in vivo [4]: 6.33 ± 0.42 h | total protein half-life in vivo [5]: 3.19 ± 0.21 h | total protein half-life in vivo [11]: 6.11 ± 0.24 h | total protein half-life in vivo [6]: 11 ± 0.89 h | total protein half-life in vivo [7]: 6.3 ± 0.13 h | total protein half-life in vivo [8]: 14 ± 2.2 h | total protein half-life in vivo [9]: 5.65 ± 0.23 h | total protein half-life in vivo [10]: 12.9 ± 0.7 h

MAIPAFGLGTFRLKDDVVISSVITALELGYRAIDTAQIYDNEAAVGQAIAESGVPRHELYITTKIWIENLSKDKLIPSLKESLQKLRTDYVDLTLIHWPSPNDEVSVEEFMQALLEAKKQGLTREIGISNFTIPLMEKAIAAVGAENIATNQIELSPYLQNRKVVAWAKQHGIHITSYMTLAYGKALKDEVIARIAAKHNATPAQVILAWAMGEGYSVIPSSTKRKNLESNLKAQNLQLDAEDKKAIAALDCNDRLVSPEGLAPEWD
total protein half-life in vivo [1]: 4.33 ± 0.17 h | total protein half-life in vivo [2]: 4.57 ± 0.071 h | total protein half-life in vivo [3]: 4.59 ± 0.27 h | total protein half-life in vivo [12]: 4.76 ± 0.34 h | total protein half-life in vivo [4]: 4.78 ± 0.36 h | total protein half-life in vivo [5]: 3.05 ± 0.099 h | total protein half-life in vivo [11]: 5.39 ± 0.67 h | total protein half-life in vivo [6]: 10.7 ± 6.2 h | total protein half-life in vivo [7]: 4.615 ± 0.044 h | total protein half-life in vivo [8]: 8.62 ± 3.3 h | total protein half-life in vivo [9]: 5.21 ± 0.41 h | total protein half-life in vivo [10]: 11.4 ± 0.5 h

MTPWFLYLIRTADNKLYTGITTDVERRYQQHQSGKGAKALRGKGELTLVFSAPVGDRSLALRAEYRVKQLTKRQKERLVAEGAGFAELLSSLQTPEIKSD
total protein half-life in vivo [1]: 6.282 ± 0.0083 h | total protein half-life in vivo [9]: 1.75 h

MELIEKHVSFGGWQNMYRHYSQSLKCEMNVGVYLPPKAANEKLPVLYWLSGLTCNEQNFITKSGMQRYAAEHNIIVVAPDTSPRGSHVADADRYDLGQGAGFYLNATQAPWNEHYKMYDYIRNELPDLVMHHFPATAKKSISGHSMGGLGALVLALRNPDEYVSVSAFSPIVSPSQVPWGQQAFAAYLAENKDAWLDYDPVSLISQGQRVAEIMVDQGLSDDFYAEQLRTPNLEKICQEMNIKTLIRYHEGYDHSYYFVSSFIGEHIAYHANKLNMR
total protein half-life in vivo [1]: 7.46 h | total protein half-life in vivo [12]: 4.61 h | total protein half-life in vivo [4]: 2.58 h | total protein half-life in vivo [5]: 2.74 ± 0.72 h | total protein half-life in vivo [11]: 7.26 ± 1 h | total protein half-life in vivo [6]: 6.87 h | total protein half-life in vivo [10]: 10.9 h
